Test results from patent publication US20070196376A1 (AstraZeneca / MedImmune, published 2007).

What was measured:
[1] = biological target: T1, Recombinant human IGF-II (insulin-like growth factor-II) (human, UniProt P01344 25-91); test: limited antigen ELISA, supernatant 1:25
T1 construct: Bought; also called IGF2; IGF-2

[2] = biological target: T2, Recombinant human IGF-I (insulin-like growth factor-I) (human, UniProt P05019 49-118); test: limited antigen ELISA, supernatant 1:25
T2 construct: Bought; also called IGF1; IGF-1

human insulin = biological target: T3, human insulin (human, UniProt P01308 25-54; P01308 90-110, limits assumed); test: Biacore, mAb on CM5 chip, insulin injected
T3 construct: The mature hormone has an A and a B chain cut from the precursor; also called recombinant insulin; hu-Insulin

IGF-I/IGFBP-3 complex = biological target: T4, IGF-I/IGFBP-3 complex (UniProt P05019 49-118); test: Biacore, mAb immobilised, preformed complex injected
T4 construct: Preformed non-covalent complex; IGF-I 99.97% complexed by IGFBP-3; also called complexed IGF-I/IGFBP-3

IGF-II/IGFBP-3 complex = biological target: T5, IGF-II/IGFBP-3 complex (UniProt P01344 25-91); test: as above
T5 construct: Preformed non-covalent complex; IGF-II 99.97% complexed by IGFBP-3; also called complexed IGF-II/IGFBP-3

Binder	LA OD, IGF2 2 ng/ml [1]	LA OD, IGF2 4 ng/ml [1]	LA OD, IGF1 2 ng/ml [2]	LA OD, IGF1 4 ng/ml [2]	binding result (human insulin)	Kd (IGF-I/IGFBP-3 complex)	Kd (IGF-II/IGFBP-3 complex)
mAb 7.158.2 (antibody, V domains shown, also called 7.158.1; 7_158_1) VH: QLQLQESGPGLVKPSETLSLTCTVSGGSIRSSSYYWGWIRQPPGKGLEWIGGIYYSGSTYYNPSLKSRVTMSVDTSKNQFSLKLSSVTAADTAVYYCARQRGHSSGWWYFDLWGRGTLVTVSS VL: DIQMTQSPSSVSASVGDSVTITCRASQGISSYLAWYQQKPGKAPKLLIYAASSLQSGVPSRFSGNGSGTDFTLTISSLQPEDFATYYCQQANNFPFTFGPGTKVDIKR	1.42 OD 450 nm	2.46 OD 450 nm	1.71 OD 450 nm	3 OD 450 nm			
mAb 7.234.2 (antibody, V domains shown, also called 7.234.1; 7_234_1) VH: QLQLQESGPGLVKPSETLSLTCTVSGGSINSSSNYWGWIRQPPGKGLAWIGGIYYSGSTYYNPSLRSRVTMSVDTSKNQFSLKLSSVTAADTAVYYCARQRGHSSGWWYFDLWGRGTLVTVSS VL: DIQMTQSPSSVSASVGDRVTITCRASRGISSWLAWYQQRPGKAPKLLIYTASSLQSGVPSRFSGSGSGTDFTLTISSLQPEDFATYYCQQANSFPFTFGPGTKVDIKR	1.4 OD 450 nm	2.44 OD 450 nm	0.7 OD 450 nm	1.79 OD 450 nm	no binding (tested: 502 nM)		
mAb 7.34.1 (ATCC Accession Number PTA-7423) (antibody, V domains shown, Fully human, lambda light chain (V1-13/JL2)) VH: QVQLQESGPGLVKPSETLSLTCTVSGGSISSYYWSWIRQPPGRGLEWIGYFFYSGYTNYNPSLKSRVTMSVDTSKNQFSLKLSSVTAADTAVYYCACITGTTKGGMDVWGQGATVTVSS VL: QSVLTQAPSVSGAPGQRVTISCTGRSSNIGAGYDVHWYQQFPGTAPKLLIYGNSNRPSGVPDRFSGSKSGTSASLAITGLQAEDEADYYCQSYDSSLSGSVFGGGTKLTVLG	1.07 OD 450 nm	1.84 OD 450 nm	0.21 OD 450 nm	0.44 OD 450 nm	no binding (tested: 502 nM)	> 1 µM	> 1 µM
mAb 7.251.3 (ATCC Accession Number PTA-7422) (antibody, V domains shown, Fully human, lambda light chain (V1-13/JL2)) VH: QVQLQESGPGLVKPSETLSLTCTVSGGSISSYYWSWIRQPPGKGLEWIGYFFYSGYTNYNPSLKSRVTISVDTSKNQFSLKLSSVTAADTAVYYCACITGTTKGGMDVWGQGTTVTVSS VL: QSVLTQPPSVSGAPGQRVTISCTGSSSNIGAGYDVHWYQQLPGTAPKLLIYGNNNRPSGVPDRFSGSKSGTSASLAITGLQADDEADYYCQSFDSSLSGSVFGGGTKLTVLG	1.02 OD 450 nm	1.53 OD 450 nm	1.09 OD 450 nm	1.31 OD 450 nm	no binding (tested: 502 nM)	> 1 µM	> 1 µM
